The target of assay [1] is des-64,65-proinsulin (UniProt P01308). Description: sandwich immunoenzymatic C-peptide assay: PEP001 beads, goat polyclonal anti-C-peptide-alkaline phosphatase; no AC1D4.
In assay [2] the target is human proinsulin (human) (UniProt P01308). In words: competitive RIA, PEP001-coated tubes, 125I-Tyr-C-peptide; serum E2 overloaded with 0.16 pmol/ml proinsulin; competitor AC1D4 20 µg/ml.
Assay [3] has the same target. In words: competitive RIA, PEP001-coated tubes, 125I-Tyr-C-peptide; serum E2 overloaded with 3.33 pmol/ml proinsulin; competitor AC1D4 20 µg/ml.
For assay [4], the target named is des-31,32-proinsulin (UniProt P01308). In words: sandwich immunoenzymatic C-peptide assay: PEP001 beads, goat polyclonal conjugate; competitors AC1D4 + BC9B6 in equal quantities, 10 µg/ml.
For assay [5], the target named is des-64,65-proinsulin (UniProt P01308). The assay is described as above.
The target of assay [6] is human proinsulin (human) (UniProt P01308). The description is as above.

Consider “PEP001 anti-C-peptide monoclonal antibody”, for which the percentage of cross reaction in assay [1] was 94%; in assay [4] it was 30%; in assay [5], 18%; in assay [6], 4%. In addition, the Increase after overload (%) in assay [2] and in assay [3] was 0% each time.

The values above are taken from patent US20050037448A1.
